These results are taken from patent EP4682166A1 (Guangzhou Enmai Biotechnology Co., Ltd, dated 2026).

Assay [1] deals with T1, natural NMI in joint fluid of an arthritic patient (human) (UniProt Q13287).
T1 sequence (looked up): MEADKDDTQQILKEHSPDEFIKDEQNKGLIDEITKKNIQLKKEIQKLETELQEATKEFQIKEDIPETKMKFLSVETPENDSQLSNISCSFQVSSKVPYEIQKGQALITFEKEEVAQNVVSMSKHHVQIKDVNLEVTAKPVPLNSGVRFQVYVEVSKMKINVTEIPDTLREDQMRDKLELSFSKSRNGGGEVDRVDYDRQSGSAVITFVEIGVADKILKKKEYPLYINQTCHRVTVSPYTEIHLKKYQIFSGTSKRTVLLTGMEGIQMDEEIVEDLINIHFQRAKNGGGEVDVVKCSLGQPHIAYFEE
Nature of the assay: sandwich ELISA; detection 94C4-1-biotin 0.5µg/mL; joint fluid diluted 1/2. A general note: In an ELISA, binding on a coated surface is turned into a signal by an enzyme label.

In assay [2] the target is T2, NMI-flag overexpressed protein (293T cells transfected with the hNMI-flag plasmid) (human) (UniProt Q13287).
T2 sequence (looked up): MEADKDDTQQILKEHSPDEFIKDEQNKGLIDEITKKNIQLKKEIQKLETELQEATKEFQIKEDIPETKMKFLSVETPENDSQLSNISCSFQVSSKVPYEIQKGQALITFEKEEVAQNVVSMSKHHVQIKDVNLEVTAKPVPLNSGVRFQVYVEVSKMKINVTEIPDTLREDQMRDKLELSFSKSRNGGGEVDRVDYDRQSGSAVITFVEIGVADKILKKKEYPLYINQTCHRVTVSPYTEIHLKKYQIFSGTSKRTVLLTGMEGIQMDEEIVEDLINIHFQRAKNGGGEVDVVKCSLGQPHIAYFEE
The assay is described as follows: sandwich ELISA; detection 94C4-1-biotin; cell supernatant of NMI-flag 293T, replicate 1.

Assay [3] has as its target T3, human NMI (N-myc Interacting protein) (human) (UniProt Q13287).
T3 sequence (looked up): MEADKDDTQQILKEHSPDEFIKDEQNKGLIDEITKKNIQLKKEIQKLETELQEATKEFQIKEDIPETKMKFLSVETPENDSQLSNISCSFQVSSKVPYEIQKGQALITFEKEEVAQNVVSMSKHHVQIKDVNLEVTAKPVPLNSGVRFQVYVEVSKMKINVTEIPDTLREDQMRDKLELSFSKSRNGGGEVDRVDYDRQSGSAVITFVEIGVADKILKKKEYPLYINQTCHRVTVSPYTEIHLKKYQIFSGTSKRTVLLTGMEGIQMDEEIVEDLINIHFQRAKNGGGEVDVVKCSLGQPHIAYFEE
Nature of the assay: magnetic-bead chemiluminescent sandwich, kit of Example 8-1; capture 98G10 beads, detection acridinium-B-8; series 1, hNMI 16000 pg/mL.

The target of assay [4] is T3, human NMI (N-myc Interacting protein) (human). The assay is described as follows: magnetic-bead chemiluminescent sandwich, kit of Example 8-1; capture 98G10 beads, detection acridinium-B-8; series 1, hNMI 1000 pg/mL.
Assay [5] shares this target. Nature of the assay: magnetic-bead chemiluminescent sandwich; capture 98G10 beads (0.5 mg 98G10), detection acridinium-B-8; hNMI 2000 pg/ml.
Assay [6] has the same target. Nature of the assay: magnetic-bead chemiluminescent sandwich, kit of Example 8-1; capture 98G10 beads, detection acridinium-B-8; series 3, hNMI 200 pg/mL.
The target is the same in assay [7]. The assay is described as follows: magnetic-bead chemiluminescent sandwich, kit of Example 8-1; capture 98G10 beads, detection acridinium-B-8; series 3, hNMI 50 pg/mL.
For assay [8] the target is unchanged. Nature of the assay: magnetic-bead chemiluminescent sandwich; capture 98G10 beads, detection acridinium-B-8 (2.0 mg B-8 labelled); hNMI 2000 pg/mL.
For assay [9] the target is unchanged. Nature of the assay: magnetic-bead chemiluminescent sandwich, kit of Example 8-1; capture 98G10 beads, detection acridinium-B-8; series 3, hNMI 4000 pg/mL.
Assay [10] has the same target. The assay is described as follows: magnetic-bead chemiluminescent sandwich; capture 98G10 beads (1.0 mg 98G10), detection acridinium-B-8; hNMI 100 pg/ml.
For assay [11] the target is unchanged. The assay is described as follows: magnetic-bead chemiluminescent sandwich, kit of Example 8-1; capture 98G10 beads, detection acridinium-B-8; series 1, hNMI 50 pg/mL.
The target is the same in assay [12]. Nature of the assay: magnetic-bead chemiluminescent sandwich, kit of Example 8-1; capture 98G10 beads, detection acridinium-B-8; series 1, hNMI 4000 pg/mL.
For assay [13] the target is unchanged. Nature of the assay: magnetic-bead chemiluminescent sandwich, kit of Example 8-1; capture 98G10 beads, detection acridinium-B-8; series 2, hNMI 7500 pg/mL.
Assay [14] has the same target. Nature of the assay: magnetic-bead chemiluminescent sandwich; capture 98G10 beads (0.5 mg 98G10), detection acridinium-B-8; hNMI 50 pg/ml.
For assay [15] the target is unchanged. Nature of the assay: magnetic-bead chemiluminescent sandwich, kit of Example 8-1; capture 98G10 beads, detection acridinium-B-8; series 3, hNMI 10000 pg/mL.
Assay [16] has the same target. The assay is described as follows: magnetic-bead chemiluminescent sandwich, kit of Example 8-1; capture 98G10 beads, detection acridinium-B-8; series 2, hNMI 1800 pg/mL.
The target is the same in assay [17]. Nature of the assay: magnetic-bead chemiluminescent sandwich; capture 98G10 beads (0.5 mg 98G10), detection acridinium-B-8; hNMI 100 pg/ml.
Assay [18] has the same target. The assay is described as follows: magnetic-bead chemiluminescent sandwich, kit of Example 8-1; capture 98G10 beads, detection acridinium-B-8; series 1, hNMI 8000 pg/mL.
Assay [19] shares this target. The assay is described as follows: magnetic-bead chemiluminescent sandwich; capture 98G10 beads, detection acridinium-B-8 (1.0 mg B-8 labelled); hNMI 2000 pg/mL.
Assay [20] has the same target. Nature of the assay: magnetic-bead chemiluminescent sandwich; capture 98G10 beads (0.5 mg 98G10), detection acridinium-B-8; hNMI 1000 pg/ml.
For assay [21] the target is unchanged. Nature of the assay: magnetic-bead chemiluminescent sandwich; capture 98G10 beads, detection acridinium-B-8 (1.0 mg B-8 labelled); hNMI 50 pg/mL.
The target is the same in assay [22]. The assay is described as follows: magnetic-bead chemiluminescent sandwich, kit of Example 8-1; capture 98G10 beads, detection acridinium-B-8; series 2, hNMI 150 pg/mL.
Assay [23] shares this target. The assay is described as follows: magnetic-bead chemiluminescent sandwich, kit of Example 8-1; capture 98G10 beads, detection acridinium-B-8; series 1, hNMI 12000 pg/mL.
For assay [24] the target is unchanged. The assay is described as follows: magnetic-bead chemiluminescent sandwich; capture 98G10 beads, detection acridinium-B-8 (2.0 mg B-8 labelled); hNMI 50 pg/mL.

B1: monoclonal antibody B-8 (antibody, V domains shown)
VH: QSLEESGGDLVKPGASLTLTCTASGFSFSSSYYMCWVRQAPGKGLEWIACIYAGSSGSTYYASWAKGRFTISKTSSTTVTLQMTSLTAADTATYFCAREYSYDDYGDFWGFNLWGPGTLVTVSS
VL: ALVMTQTPSSVSAAVGGTVTINCQASQNIYTNLAWYQQKPGQPPKLLIYGASNLESGVPSRFKGSGSGTEYTLTISDLECDDAATYYCQSSLYSRIADRANAFGGGTEVVVK
notes: Rabbit monoclonal antibody; also called B8-1
As to B1, the OD450 in [1] turned out to be 0.128 OD450; in assay [2] it was 0.897 OD450.

B2: acridinium ester-labeled monoclonal antibody B-8 (antibody, V domains shown)
VH: QSLEESGGDLVKPGASLTLTCTASGFSFSSSYYMCWVRQAPGKGLEWIACIYAGSSGSTYYASWAKGRFTISKTSSTTVTLQMTSLTAADTATYFCAREYSYDDYGDFWGFNLWGPGTLVTVSS
VL: ALVMTQTPSSVSAAVGGTVTINCQASQNIYTNLAWYQQKPGQPPKLLIYGASNLESGVPSRFKGSGSGTEYTLTISDLECDDAATYYCQSSLYSRIADRANAFGGGTEVVVK
modifications: acridinium ester label on the antibody, site not stated
On to B2, for which the Signal value in assay [3] was 1.21e+06; in assay [4], 57600; in assay [5], 204000; in assay [6], 25700; in assay [7] it was 6120; in [8], 234000. Also, the Signal value is 572000 in assay [9]; 20400 in assay [10]; 2010 in [11]; 258000 in assay [12]; 900000 in [13]; 4560 in assay [14]. In addition, the Signal value in [15] came to 1.48e+06; in assay [16], 181000; in [17], 9490; in assay [18], 587000; in [19], 204000; in [20] it was 97600. Besides, the Signal value in assay [21] was 4560; in [22], 15500; in assay [23], 894000; in [24] it was 6220.
